How the values were obtained:
[1] = substrate: CN1CC=C(C2CCCN2C)CC1; assay: Km value for Monoamine oxidase B was determined in baboon liver tissue.; design: species or system Papio hamadryas
[2] = substrate: CN1CC=C(C2CCCN2C)CC1; assay: Km value for Monoamine oxidase A was determined in human placental tissue

B1: Amine oxidase [flavin-containing] B (Homo sapiens) (protein)
chain: MSNKCDVVVVGGGISGMAAAKLLHDSGLNVVVLEARDRVGGRTYTLRNQKVKYVDLGGSYVGPTQNRILRLAKELGLETYKVNEVERLIHHVKGKSYPFRGPFPPVWNPITYLDHNNFWRTMDDMGREIPSDAPWKAPLAEEWDNMTMKELLDKLCWTESAKQLATLFVNLCVTAETHEVSALWFLWYVKQCGGTTRIISTTNGGQERKFVGGSGQVSERIMDLLGDRVKLERPVIYIDQTRENVLVETLNHEMYEAKYVISAIPPTLGMKIHFNPPLPMMRNQMITRVPLGSVIKCIVYYKEPFWRKKDYCGTMIIDGEEAPVAYTLDDTKPEGNYAAIMGFILAHKARKLARLTKEERLKKLCELYAKVLGSLEALEPVHYEEKNWCEEQYSGGCYTTYFPPGILTQYGRVLRQPVDRIYFAGTETATHWSGYMEGAVEAGERAAREILHAMGKIPEDEIWQSEPESVDVPAQPITTTFLERHLPSVPGLLRLIGLTTIFSATALGFLAHKRGLLVRV
Km [1]: 60.9 µM

B2: Amine oxidase [flavin-containing] A (Homo sapiens) (protein)
chain: MENQEKASIAGHMFDVVVIGGGISGLSAAKLLTEYGVSVLVLEARDRVGGRTYTIRNEHVDYVDVGGAYVGPTQNRILRLSKELGIETYKVNVSERLVQYVKGKTYPFRGAFPPVWNPIAYLDYNNLWRTIDNMGKEIPTDAPWEAQHADKWDKMTMKELIDKICWTKTARRFAYLFVNINVTSEPHEVSALWFLWYVKQCGGTTRIFSVTNGGQERKFVGGSGQVSERIMDLLGDQVKLNHPVTHVDQSSDNIIIETLNHEHYECKYVINAIPPTLTAKIHFRPELPAERNQLIQRLPMGAVIKCMMYYKEAFWKKKDYCGCMIIEDEDAPISITLDDTKPDGSLPAIMGFILARKADRLAKLHKEIRKKKICELYAKVLGSQEALHPVHYEEKNWCEEQYSGGCYTAYFPPGIMTQYGRVIRQPVGRIFFAGTETATKWSGYMEGAVEAGERAAREVLNGLGKVTEKDIWVQEPESKDVPAVEITHTFWERNLPSVSGLLKIIGFSTSVTALGFVLYKYKLLPRS
Km [2]: 52 µM

Reference: ChEMBL document CHEMBL1136363, “Rational approaches towards reversible inhibition of type B monoamine oxidase. Design and evaluation of a novel 5H-Indeno[1,2-c]pyridazin-5-one derivative” (Bioorg Med Chem Lett, 2003)
